Laboratory results reported in paper PMC6546417 (Science (New York, N.Y.), 2009).
Changes are numbered by the printed parent chain. Several values for one entry are separate records, joined by “and”; a condition that tells them apart may be missing. Equal values may be shown once.

B1: Mdv1 (natural protein, yeast, UniProt P47025 1-714, looked up)
chain: MSVNDQITHIGKTLSTTASAFLNYQKSNSNTQDVLTNNGPYKNLLSNTVNNASSTSYFYKRTEHGRFVKNASNTFEDIYSKTRRGDVFRNKFTDNKTCFRMLTYISDDLLNEIPTKEGLKSDADGKLLTEGGENENLRKNASKKETSLFQGFKSYLPIAELAIENTERLNYDTNGTSGTVGAKDVMSKTNERDEIHTELPNFQDSFLIPPGVETKKISSSYSPSALKSFSQTLVNSLEFLNIQKNSTLSEIRDIEVEVENLRQKKEKLLGKIANIEQNQLLLEDNLKQIDDRLDFLEEYGLEVIEANSDENAEDDGMSERKALKNDAIRNEGVTTESISSEASNLPPRRRQQLRDDNSLNRLGAFYSKSKKRHRKSFPTFQQLYEPGTKIGSIMSTHDDFLTCLDFDAPFGTLCTAGYLDHTVKIWDLSKQNKIGELAGHLATINCMQINRDYGTLVTGGRDAALKLWNLNLAQQLYQETQNLTSPTNHIDSPCVHTFEAHTDEVTALSLDPSFLVSGSQDRTIRQWDLRSGKCLQTIDLSFANVLTTSTNVDLSKSTLLTQRNERPSIGALQSFDAALATGTKDGVVRLWDLRSGKVIRTLKGHTDAITSLKFDSACLVTGSYDRTVRIWDLRTGLLNKFHAYSAPVLSLDLFQENAAVVVADEPSVQIYDSEKDESWSCVEQGNETSVSTVKYKENYMVEGRENGDVNIWAV
B2: Dnm1 (enzyme, yeast, UniProt P54861 1-757, looked up)
chain: MASLEDLIPTVNKLQDVMYDSGIDTLDLPILAVVGSQSSGKSSILETLVGRDFLPRGTGIVTRRPLVLQLNNISPNSPLIEEDDNSVNPHDEVTKISGFEAGTKPLEYRGKERNHADEWGEFLHIPGKRFYDFDDIKREIENETARIAGKDKGISKIPINLKVFSPHVLNLTLVDLPGITKVPIGEQPPDIEKQIKNLILDYIATPNCLILAVSPANVDLVNSESLKLAREVDPQGKRTIGVITKLDLMDSGTNALDILSGKMYPLKLGFVGVVNRSQQDIQLNKTVEESLDKEEDYFRKHPVYRTISTKCGTRYLAKLLNQTLLSHIRDKLPDIKTKLNTLISQTEQELARYGGVGATTNESRASLVLQLMNKFSTNFISSIDGTSSDINTKELCGGARIYYIYNNVFGNSLKSIDPTSNLSVLDVRTAIRNSTGPRPTLFVPELAFDLLVKPQIKLLLEPSQRCVELVYEELMKICHKCGSAELARYPKLKSMLIEVISELLRERLQPTRSYVESLIDIHRAYINTNHPNFLSATEAMDDIMKTRRKRNQELLKSKLSQQENGQTNGINGTSSISSNIDQDSAKNSDYDDDGIDAESKQTKDKFLNYFFGKDKKGQPVFDASDKKRSIAGDGNIEDFRNLQISDFSLGDIDDLENAEPPLTEREELECELIKRLIVSYFDIIREMIEDQVPKAVMCLLVNYCKDSVQNRLVTKLYKETLFEELLVEDQTLAQDRELCVKSLGVYKKAATLISNIL

Columns and labels:
Dnm1 = biological target: B2; test: cell-based or functional assay
[1] = biological target: the molecule itself; test: SEC + other: sucrose gradient sedimentation
Dnm1K41A = biological target: T1, Dnm1K41A (yeast, UniProt P54861 1-757, K41A); test: liposome flotation
T1 sequence (looked up): B2 chain with K41A

cross-linking = biological target: the molecule itself; test: cross-linking
[2] = biological target: the molecule itself; test: negative-stain electron microscopy

Binder	amount of GTP cross-linked to Dnm1 by ultraviolet light on addition of Mdv1 (Dnm1)	stoichiometry N [1]	binding result (Dnm1K41A)	stoichiometry N (cross-linking)	binding result [2]
B1	1.4 fold	2	binds	4 and 6	–
B2	–	–	–	–	binds
